The supplement of paper PMC9233669
Variants at the floor of the assay were thinned out.

Columns and labels:
biotinyl-Leu-oxazolone = assay: self-aminoacylation, catalytic enhancement (BLO) (fold over background); higher = more active; k-Seq, kA / k0A0; sequences stand for … in GGGAAUGGAUCCACAUCUACGAAUUC…UUCACUGCAGACUUGACGAAGCUG
How it was run: (§1)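 Mutagenized RNA pools with a 21-nt variable region (0.43 μM) were reacted with each biotinyl-aminoacyl-oxazolone at 2–1250 μM for 90 minutes at room temperature, in 50 μL HEPES/NaCl/KCl/MgCl2/CaCl2 buffer containing 5% acetonitrile at pH 6.9–7.0. RNA captured on streptavidin was quantified by triplicate qPCR and by Illumina sequencing. The fraction reacted for each sequence was fit to a pseudo-first-order model with bootstrapping, and catalytic enhancement is the median kA divided by the uncatalyzed rate, taken as the low-activity peak of a bimodal Gaussian fit.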

biotinyl-Ile-oxazolone = assay: self-aminoacylation, catalytic enhancement (BIO) (fold over background); higher = more active; k-Seq, kA / k0A0; sequences stand for … in GGGAAUGGAUCCACAUCUACGAAUUC…UUCACUGCAGACUUGACGAAGCUG
How it was run: as §1

biotinyl-Phe-oxazolone = assay: self-aminoacylation, catalytic enhancement (BFO) (fold over background); higher = more active; k-Seq, kA / k0A0; sequences stand for … in GGGAAUGGAUCCACAUCUACGAAUUC…UUCACUGCAGACUUGACGAAGCUG
How it was run: as §1

biotinyl-Trp-oxazolone = assay: self-aminoacylation, catalytic enhancement (BWO) (fold over background); higher = more active; k-Seq, kA / k0A0; sequences stand for … in GGGAAUGGAUCCACAUCUACGAAUUC…UUCACUGCAGACUUGACGAAGCUG
How it was run: as §1

biotinyl-Met-oxazolone = assay: self-aminoacylation, catalytic enhancement (BMO) (fold over background); higher = more active; k-Seq, kA / k0A0; sequences stand for … in GGGAAUGGAUCCACAUCUACGAAUUC…UUCACUGCAGACUUGACGAAGCUG
How it was run: as §1

biotinyl-Val-oxazolone = assay: self-aminoacylation, catalytic enhancement (BVO) (fold over background); higher = more active; k-Seq, kA / k0A0; sequences stand for … in GGGAAUGGAUCCACAUCUACGAAUUC…UUCACUGCAGACUUGACGAAGCUG
How it was run: as §1

Row | Sequence | self-aminoacylation (biotinyl-Leu-oxazolone) | self-aminoacylation (biotinyl-Ile-oxazolone) | self-aminoacylation (biotinyl-Phe-oxazolone) | self-aminoacylation (biotinyl-Trp-oxazolone) | self-aminoacylation (biotinyl-Met-oxazolone) | self-aminoacylation (biotinyl-Val-oxazolone)
1 | AUUCACCUAGGUCAACGGUUG [Fam2.2 aminoacylation ribozyme variant] | 0.71 | 0.852 | 1.03 | 0.94 | 0.808 | 0.808
2 | AUUCACCUAGGUCAGCGGGCG [Fam2.2 aminoacylation ribozyme variant] | 7.99 | 5.22 | 27 | 4.44 | 5.27 | 5.42
3 | AUUCACCUAGGUCAGCGGGGG [Fam2.2 aminoacylation ribozyme variant] | 5.24 | 4.35 | 27.6 | 5.24 | 5.1 | 3.43
4 | AUUCACCUAGGUCAGGGGGUG [Fam2.2 aminoacylation ribozyme variant] | 3.4 | 1.78 | 13.9 | 2.55 | 2.67 | 1.8
5 | AUUCACCUAGGUCAUACGGUG [Fam2.2 aminoacylation ribozyme variant] | 10.3 | 4.38 | 55.7 | 6.75 | 7.59 | 4.41
6 | AUUCACCUAGGUCAUAGAGUG [Fam2.2 aminoacylation ribozyme variant] | 3.92 | 2.23 | 10.1 | 2.12 | 2.98 | 2.08
7 | AUUCACCUAGGUCAUAGCGUG [Fam2.2 aminoacylation ribozyme variant] | 4.63 | 2.46 | 17.1 | 3.55 | 3.36 | 2.15
8 | AUUCACCUAGGUCAUAGGGUG [Fam2.2 aminoacylation ribozyme variant] | 2.06 | 1.39 | 2.06 | 1.49 | 1.75 | 1.35
9 | AUUCACCUAGGUCAUAGGUUG [Fam2.2 aminoacylation ribozyme variant] | 0.9 | 0.63 | 0.595 | 0.441 | 0.846 | 0.77
10 | AUUCACCUAGGUCAUCAAGUG [Fam2.2 aminoacylation ribozyme variant] | 0.756 | 0.747 | 1.21 | 0.347 | 0.662 | 0.711
11 | AUUCACCUAGGUCAUCAGGAG [Fam2.2 aminoacylation ribozyme variant] | 1.01 | 0.957 | 0.931 | 0.779 | 0.951 | 1.09
12 | AUUCACCUAGGUCAUCAGGGG [Fam2.2 aminoacylation ribozyme variant] | 1.32 | 1.22 | 0.986 | 0.985 | 0.955 | 1.22
13 | AUUCACCUAGGUCAUCAGGUG [Fam2.2 aminoacylation ribozyme variant] | 1.56 | 1.19 | 1.31 | 1.39 | 1.39 | 1.3
14 | AUUCACCUAGGUCAUCCAGUG [Fam2.2 aminoacylation ribozyme variant] | 9.68 | 5.19 | 52 | 6.96 | 7.78 | 4.21
15 | AUUCACCUAGGUCAUCGCGGG [Fam2.2 aminoacylation ribozyme variant] | 4.05 | 2.97 | 10.7 | 2.25 | 3.25 | 2.47
16 | AUUCACCUAGGUCAUCGGAGG [Fam2.2 aminoacylation ribozyme variant] | 0.991 | 0.829 | 0.759 | 0.621 | 0.898 | 1.03
17 | AUUCACCUAGGUCAUCGGAUA [Fam2.2 aminoacylation ribozyme variant] | 0.877 | 0.894 | 0.865 | 0.615 | 0.754 | 1.2
18 | AUUCACCUAGGUCAUCGGCUU [Fam2.2 aminoacylation ribozyme variant] | 2.3 | 2.1 | 6.3 | 3.27 | 2.26 | 2.02
19 | AUUCACCUAGGUCAUCGGGAU [Fam2.2 aminoacylation ribozyme variant] | 9.22 | 3.59 | 18.7 | 5.12 | 6.11 | 3.4
20 | AUUCACCUAGGUCAUCGGGCA [Fam2.2 aminoacylation ribozyme variant] | 5.57 | 3.5 | 3.27 | 2.81 | 3.67 | 3.24
21 | AUUCACCUAGGUCAUCGGGCG [Fam2.2 aminoacylation ribozyme variant] | 10.3 | 4.76 | 13.8 | 5.66 | 7.58 | 4.82
22 | AUUCACCUAGGUCAUCGGGCU [Fam2.2 aminoacylation ribozyme variant] | 12.4 | 5.03 | 37.6 | 6.09 | 8.6 | 4.55
23 | AUUCACCUAGGUCAUCGGGGG [Fam2.2 aminoacylation ribozyme variant] | 9.91 | 4.62 | 32.6 | 5.49 | 6.96 | 4.28
24 | AUUCACCUAGGUCAUCGGUGG [Fam2.2 aminoacylation ribozyme variant] | 1.85 | 1.5 | 4.26 | 1.81 | 1.97 | 1.52
25 | AUUCACCUAGGUCAUCGGUUA [Fam2.2 aminoacylation ribozyme variant] | 1.27 | 1.11 | 1.09 | 1.35 | 1.28 | 1.17
26 | AUUCACCUAGGUCAUCGUGUU [Fam2.2 aminoacylation ribozyme variant] | 0.905 | 0.899 | 0.729 | 1.62 | 0.887 | 0.73
